The results in this text go back to article PMC9875641, “Ophthalmic Solution of Smart Supramolecular Peptides to Capture Semaphorin 4D against Diabetic Retinopathy” (Advanced Science, 2022).

In this experiment the target is soluble semaphorin 4D. Nature of the experiment: SPR; surface plasmon resonance imaging (SPRi) of TPs and sSema4D; who was immobilised and the conditions are not told in the main text. The following applies: both partners purified. Background: SPR reads the build-up and loss of mass on a sensor chip optically.
soluble semaphorin 4D, sequence (chain, as listed by the source): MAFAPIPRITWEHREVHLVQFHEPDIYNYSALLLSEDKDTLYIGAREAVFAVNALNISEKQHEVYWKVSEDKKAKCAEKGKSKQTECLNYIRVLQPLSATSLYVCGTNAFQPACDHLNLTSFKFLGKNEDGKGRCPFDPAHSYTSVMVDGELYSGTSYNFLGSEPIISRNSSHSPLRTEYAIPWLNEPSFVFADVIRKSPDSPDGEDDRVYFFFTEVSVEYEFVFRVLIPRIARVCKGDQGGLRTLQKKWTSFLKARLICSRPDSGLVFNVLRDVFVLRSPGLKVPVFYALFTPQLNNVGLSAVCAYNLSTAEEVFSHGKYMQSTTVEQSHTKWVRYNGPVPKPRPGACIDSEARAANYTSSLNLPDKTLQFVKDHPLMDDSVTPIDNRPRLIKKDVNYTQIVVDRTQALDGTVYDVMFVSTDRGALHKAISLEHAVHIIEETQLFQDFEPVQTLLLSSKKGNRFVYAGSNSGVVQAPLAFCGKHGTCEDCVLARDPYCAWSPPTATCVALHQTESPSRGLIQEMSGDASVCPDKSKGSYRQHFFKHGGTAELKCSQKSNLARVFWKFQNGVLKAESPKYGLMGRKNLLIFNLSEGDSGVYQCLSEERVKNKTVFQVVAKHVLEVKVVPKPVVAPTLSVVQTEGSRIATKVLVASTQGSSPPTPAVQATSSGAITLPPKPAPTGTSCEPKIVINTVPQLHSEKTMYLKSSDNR

B1: TP-2 (peptide)
chain: KQKRPRH
modifications: Limits taken by convention as the full extracellular domain after the signal peptide. Species is not printed for the assayed protein; human is assumed, mouse O09126 24-733 is the alternative. Natural
Take B1: binding was put at a Kd of 41.7 nM.

B2: TP-7 (peptide)
chain: KNKAAKG
modifications: Limits taken by convention as the full extracellular domain after the signal peptide. Species is not printed for the assayed protein; human is assumed, mouse O09126 24-733 is the alternative. Natural
The molecule B2 gave a Kd of 14.6 nM.

A word on the Kd: it is a measure of binding affinity in units of concentration. A higher Kd goes with a looser complex.
